Test results as given in PMC3213697.

Experiments:
Assay in all cases: SEC; gel filtration chromatography of the refolded precursor proteins after heparin affinity chromatography; peak D, dimer
[1] = molecular target: C313A myostatin precursor protein (UniProt O14793)
[2] = molecular target: C313Y myostatin precursor protein (UniProt O14793)
[3] = molecular target: C374A myostatin precursor protein (UniProt O14793)

## C313A myostatin precursor protein (from UniProt O14793 24-375) (natural protein)
[1]
  stoichiometry N: 2

## C313Y myostatin precursor protein (from UniProt O14793 24-375) (natural protein)
[2]
  stoichiometry N: 2

## C374A myostatin precursor protein (from UniProt O14793 24-375) (natural protein)
[3]
  stoichiometry N: 2
